{
  "source": "patent US20210301020A1",
  "about": "(Amgen, published 2021)",
  "key": {"[1]": {"biological_target": "human LILRB1 expressed on cells (Jurkat reporter cells; primary human cells; human CD8+ T cells) (human) (UniProt Q8NHL6)", "test": "flow cytometry, control on LILRB1 expressed by primary human cells"}, "[2]": {"biological_target": "human LILRB1 expressed on cells (Jurkat reporter cells; primary human cells; human CD8+ T cells) (human) (UniProt Q8NHL6)", "test": "flow cytometry, hybridoma supernatant on LILRB1 expressed by primary human cells"}, "[3]": {"biological_target": "T1, Recombinant human LILRB1 (R&D Systems) (human, UniProt Q8NHL6 24-458, limits assumed)", "T1 construct": "Soluble analyte in the Octet assay", "T1 sequence (Q8NHL6 24-458 limits assumed)": "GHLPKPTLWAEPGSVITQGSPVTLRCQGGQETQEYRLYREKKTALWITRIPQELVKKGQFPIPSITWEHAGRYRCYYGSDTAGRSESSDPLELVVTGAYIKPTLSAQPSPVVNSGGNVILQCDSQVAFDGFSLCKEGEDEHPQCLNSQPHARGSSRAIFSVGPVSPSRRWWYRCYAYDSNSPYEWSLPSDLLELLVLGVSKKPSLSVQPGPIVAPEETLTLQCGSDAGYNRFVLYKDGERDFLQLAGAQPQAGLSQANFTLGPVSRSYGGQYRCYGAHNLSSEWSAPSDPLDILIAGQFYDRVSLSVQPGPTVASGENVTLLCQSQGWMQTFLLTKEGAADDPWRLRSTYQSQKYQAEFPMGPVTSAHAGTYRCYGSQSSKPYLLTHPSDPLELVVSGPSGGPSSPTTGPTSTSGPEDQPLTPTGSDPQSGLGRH", "test": "BLI, ForteBio Octet HTX, antibody captured by anti-human Fc on SA sensors, soluble LILRB1 as analyte, 25 C, 1:1 model", "method": "Affinity was measured on ForteBio Octet HTX (Molecular Devices) using SA biosensors (cat 18-5010) using assay buffer comprised of 10 mM Tris, 0.1% TritonX, 150 mM NaCl, 1 mM CaCl₂), 1 mg/mL BSA, pH 7.4. Assay was conducted at 25° C. and 1:1 model was used to fit the curves. Biotinylated goat anti-human Fc at 0.75 ug/mL was captured on SA sensors and antibodies as unpurified but quantified hybridoma supernatant were loaded on the sensor at 2 ug/mL for 600 seconds. Recombinant human LILRB1 (R&D Systems) titrated 1:2 from 25 nM was allowed to bind for 5 minutes, then dissociation was measured for 20 minutes."}, "[4]": {"biological_target": "human LILRB1 expressed on cells (Jurkat reporter cells; primary human cells; human CD8+ T cells) (human) (UniProt Q8NHL6)", "test": "cell-based or functional assay"}},
  "data": [
    {"molecule": "Isotype control (Table 2) (antibody)", "values": [
      {"measurement": "FACS GeoMean test 2", "setting": "[1]", "value": 359},
      {"measurement": "FACS GeoMean, test 1", "setting": "[1]", "value": 73}
    ]},
    {"molecule": "anti-LILRB1 antibody 3C1 (antibody, human IgG4, lambda, V domains shown, Fully human antibody from XENOMOUSE XMG4-K/XMG4-KL mice, tested as hybridoma supernatant) VH: EVQLVESGGGLVQPGGSLRLSCAASGFTFSDYDMHWVRQATGKGLEWVATIDTAGDTYYPDSVRGRFTISRENAKNSLSLQMNSLRAGDTAVYFCARDVPGTGFDHWGQGTLVTVSS VL: SSELTQDPAVSVALGQTVRITCQGDSLRSYYESWYQQKPGQAPVLVIYGKNNRPSGIPDRFSGSISGNTASLTITGTQAEDEADYYCNSRDNSGDHWVFGGGTRLTVLG", "values": [
      {"measurement": "FACS GeoMean, test 1", "setting": "[2]", "value": 1750},
      {"measurement": "Kd", "setting": "[3]", "value": 0.168, "unit": "nM"},
      {"measurement": "koff", "setting": "[3]", "value": 0.000247, "unit": "s⁻¹"},
      {"measurement": "kon", "setting": "[3]", "value": "1.47e+06", "unit": "M⁻¹ s⁻¹"},
      {"measurement": "Potency (nM), n = 1", "setting": "[4]", "value": 0.04, "unit": "nM"},
      {"measurement": "Potency (nM), n = 2", "setting": "[4]", "value": 0.024, "unit": "nM"}
    ]},
    {"molecule": "anti-LILRB1 antibody 19D6 (antibody, V domains shown, Fully human antibody from XENOMOUSE mice, tested as hybridoma supernatant) VH: EVQLVESGGGLVQPGESLRLSCAASGFTFSDYDMHWVRQATGKGLEWVSAIDTAGDTYYLGPVKGRFTISRENAKNSLFLHMNSLRVGDTAVYYCIRDSGSSFDYWGQGTLVTVSS VL: TSELTQDPAVSVALGQTVRITCQGDSLRNYYESWYQQKPGQAPVLVIYGKNNRPSGIPDRFSGSSSGNTASLIITGTQAEDEADYYCMSRDSSGNHWVFGGGTKVTVLG", "values": [
      {"measurement": "FACS GeoMean test 2", "setting": "[2]", "value": 2540},
      {"measurement": "Kd", "setting": "[3]", "value": 0.176, "unit": "nM"},
      {"measurement": "koff", "setting": "[3]", "value": 0.000206, "unit": "s⁻¹"},
      {"measurement": "kon", "setting": "[3]", "value": "1.17e+06", "unit": "M⁻¹ s⁻¹"},
      {"measurement": "Potency (nM), n = 1", "setting": "[4]", "value": 0.084, "unit": "nM"},
      {"measurement": "Potency (nM), n = 2", "setting": "[4]", "value": 0.095, "unit": "nM"}
    ]},
    {"molecule": "anti-LILRB1 antibody 30A10 (antibody, V domains shown, Fully human antibody from XENOMOUSE mice, tested as hybridoma supernatant) VH: QVQLVESGGGVVQPGRSLRLSCAASGFTFSSYAMHWVRQAPGKGLEWVAIIWFDGSQRYYADSVKGRFTISRDNSRDTLYLQMNSLRAEDTAVYYCARDELTGFDYWGQGTLVTVSS VL: DIQMTQSPSSLSASVGDRVTISCRASQNIINFLNWYQQKPGKAPKVLIDAASSLRSGVPSRFSGSGSETDFSLTISSLQPEDFATYYCQQSFSTPLTFGGGTKVEIRR", "values": [
      {"measurement": "FACS GeoMean test 2", "setting": "[2]", "value": 2540},
      {"measurement": "Kd", "setting": "[3]", "value": 0.103, "unit": "nM"},
      {"measurement": "koff", "setting": "[3]", "value": 0.00012, "unit": "s⁻¹"},
      {"measurement": "kon", "setting": "[3]", "value": "1.17e+06", "unit": "M⁻¹ s⁻¹"},
      {"measurement": "Potency (nM), n = 1", "setting": "[4]", "value": 0.062, "unit": "nM"},
      {"measurement": "Potency (nM), n = 2", "setting": "[4]", "value": 0.042, "unit": "nM"}
    ]}
  ]
}
